One series deals with T1, granzyme B (Homo sapiens, UniProt P10144).
T1 construct: Some of these preparations were used for the further purification of granzyme B (Tschopp, 1994); endogenous in cells; host or cells: YT cells (human NK cell line), cytoplasmic granules
Kind of series: In vitro cleavage of substrates by purified granzyme B, kcat/Km from densitometry. The series is classed as biochemical. The following applies: in the presence of 10 μg/ml DNA. The procedure:
cDNAs for caspase-3, caspase-7, NuMA and PARP were used to drive the synthesis of [^35S]methionine-labeled proteins by coupled transcription/translation in rabbit reticulocyte lysates. For all purified substrates, cleavage reactions were performed in buffer consisting of 50 mM Hepes pH 7.4, 10% sucrose and 5 mM DTT in the presence of the granzyme B concentrations indicated in FIG. 1. After incubation at 37° C. for 15 min, reactions were terminated and samples were electrophoresed on 10% (DNA-PKcs, NuMA), 12% (PARP) or 15% (caspases 3 and 7) SDS-polyacrylamide gels. Radiolabeled proteins and their fragments were visualized by fluorography. Intact and cleaved DNA-PKcs were visualized by immunoblotting with monoclonal antibody 18-2 (Casciola-Rosen et al., 1995).
Catalytic constant (kcat/km) values were calculated essentially as described (Casciola-Rosen et al., 1996). Briefly, subsaturating substrate concentrations were used in each in vitro reaction, and product appearance was assumed to be a first order process. […] Several appropriate densitometry systems are available, e.g. PDI Discovery System, with Quantity One Software, Protein Databases, Inc., (Huntington Station, N.Y.). kcat/Km values were calculated by fitting the dose-response data to the first order rate equation: percent substrate cleavage=100*((1^-e-((kcat*[E]/Km)*time)). […]

Series [1] relates to SP1. The experiment in a line: DNA-PKcs kinase assay (SP1 phosphorylation). The series is classed as biochemical. The following applies: 12.5 nM granzyme B, 13.5 min, 37° C., then DNA, ATP. The procedure:
Kinase assays were performed on intact DNA-PKcs or DNA-PKcs that had first been cleaved by granzyme B as follows. Reaction mixtures containing 10 mM Hepes pH 7.4, 2 mM MgCl2, 10 mM KCl, 2.7 mM DTT, and 50 ng DNA-PKcs in the absence or presence of 12.5 nM purified granzyme B, were incubated for 13.5 min at 37° C. Kinase reactions were subsequently initiated by adding 100 ng SP1 and 150 μM ATP containing 1.5 μCi [^32P]-ATP (3000 Ci/mmol), in the absence or presence of 10 μg/ml sheared herring sperm DNA (Promega). Samples were incubated at 37° C. for 10 min (well within the linear range of the assay, data not shown), before terminating the reactions by adding SDS gel buffer and boiling. After electrophoresing the samples on 8% SDS-PAGE, SP1 phosphorylation was detected by autoradiography, and quantitated by densitometry. Cleaved status of the kinase was confirmed in parallel by immunoblotting.

The target of series [2] is SP1. Particulars: Casciola-Rosen et al., 1996; cited from earlier work.

“Also recorded” adds a separate entry of the source.

T1 sequence (P10144 21-247): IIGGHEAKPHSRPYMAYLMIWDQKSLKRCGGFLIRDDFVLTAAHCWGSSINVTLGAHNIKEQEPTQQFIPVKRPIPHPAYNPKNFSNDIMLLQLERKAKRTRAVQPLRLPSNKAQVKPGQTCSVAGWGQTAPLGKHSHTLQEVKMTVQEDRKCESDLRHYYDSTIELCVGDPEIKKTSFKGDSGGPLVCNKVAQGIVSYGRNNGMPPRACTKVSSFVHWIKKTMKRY

“DNA-dependent protein kinase catalytic subunit [DNA-PKCS]”: in the series with granzyme B, the “decrease of DNA-PKcs cleavage by granzyme B” value is “approximately 90%”. Besides, the “kinase activity of DNA-PKcs after cleavage by granzyme B” value in the series on SP1 [1] is “entirely abolished; also recorded: completely abrogates”. Moreover, on SP1 [2], the “kinase activity of DNA-PKcs after caspase-3 cleavage” value is reported as “approximately 60 % of control levels”.

Source of the values: patent publication US6855515B1, “Autoantigenic fragments, methods and assays” (Merck & Co., Inc., priority 1998, dated 2005).
